# B1: BDIGENE #246: Clostridium viride 5-hydroxyvalerate CoA transferase (protein)
# chain: MAQFVTAQEAVKHIPNGSRVVLAHSTGEPRTLVKAMVENYEQYKDVEVCHMLGLGPYEYTNPEMKGHLWHNSLFMGPGGRKAFNENRLDFTPGYFCDSIKFFREGYLPVDVLMMTVSPPDKHGYVTCGITCDFTMPAFECAKMVIVQVNKNMPRTFGQTAIHLDDIDFAVEADDPLYGSVPGELTDIDRKIGEHCASLINDGACLQLGIGGIPNAVLTYLTEKNDMGIHSEMLSDGILQLIKAGNINNSKKQIHVGKSAVTFLNGSQELYDYVDDNPSVEFYPVDYINDPYVIGKNDNMVSVNSALSVDLMGQIVADNLSATRQISGAGGFVDFVRGATISKGGISIVAMPSTAAGGKASRIEMMFDAGRPITLTRFESFYVVTEYGIAKMRGNSLRTRARQLIEIAHPDFRDEMKEFYEKRFGEKY
# modifications: Clostridium viride
# notes: Clostridium viride 5-hydroxyvalerate CoA transferase
# Assay: coupled assay of 5-hydroxyvalerate CoA transferase and thiolase, LC-MS detection of acyl-CoAs
# Type: biochemical
# Conditions: 1 mM acetyl-CoA, 1 mM 5-hydroxyvalerate, pH 6.8, 30° C.; no analytical standards, ions of expected molecular weight
# Experimental: For each culture, expression plasmids were freshly transformed into BL21(DE3) (Agilent). Colonies from fresh agar plates were used to inoculate 20 ml LB in 250 ml flask overnight pre-culture. For all constructs except 237, ampicillin was used, for 237 kanamycin was required. After incubation overnight at 37° C. and 200 rpm, pre-cultures were used to inoculate (1:100) larger cultures, 350 ml LB, with respective antibiotic in […]. After 2.5 h of shaking with 200 rpm at 37° C., cultures reached OD600 in the range 0.5-0.7 at which point they were induced with 1 mM IPTG and the temperature of the culture was changed to 25° C. Incubation continued overnight. Cells were harvested the next day and stored at −20° C. until protein purification was performed.
# To purify an overexpressed protein, a bacterial pellet from a 350 ml culture was resuspended in up to total 20 ml of Binding Buffer (20 mM Sodium phosphate pH 7.4, 500 mM Sodium chloride, 20 mM imidazole, 5% glycerol) and sonicated for 2 min with a microtip (amplitude 50%, 1 s pulse ON, 2 s OFF). Cell suspension was centrifuged with 20,000 G for 30 min at 4° C. As all the tested proteins were His-tagged, the purification with Immobilized Metal Affinity Chromatography was sufficient to ensure both necessary purity and amount for the enzymatic assays. […]
molecule,measurement,value
B1,intermediate product 5-hydroxyvaleryl-CoA by LC-MS,detected in all samples containing both substrates and BDIGENE #246

# — patent publication US10920254B2, “Methods and materials for producing 5 and 7-carbon monomers” (INVISTA North America S.á.r.l., priority 2015, dated 2021)
